Results: paper doi:10.1101/2024.11.14.623549 (bioRxiv, 2024)

T1: Sla2cc ΔSite1 (Δ515-546) (Saccharomyces cerevisiae, UniProt P33338 296-767, Δ515-546)
T1 sequence (looked up): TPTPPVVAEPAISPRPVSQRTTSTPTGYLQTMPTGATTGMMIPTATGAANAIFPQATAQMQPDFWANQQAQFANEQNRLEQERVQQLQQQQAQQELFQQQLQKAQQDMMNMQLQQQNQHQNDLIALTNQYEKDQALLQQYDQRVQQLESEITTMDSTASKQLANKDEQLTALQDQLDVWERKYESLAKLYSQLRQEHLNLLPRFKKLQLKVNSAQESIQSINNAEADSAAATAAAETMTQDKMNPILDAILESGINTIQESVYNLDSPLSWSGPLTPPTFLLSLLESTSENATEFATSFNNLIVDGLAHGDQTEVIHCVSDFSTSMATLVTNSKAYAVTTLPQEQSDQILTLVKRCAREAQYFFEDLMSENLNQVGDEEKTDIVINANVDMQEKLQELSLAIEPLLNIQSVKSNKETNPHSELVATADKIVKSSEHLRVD

T2: Sla2:270-350 (complete IDR of Sla2) (Saccharomyces cerevisiae, UniProt P33338 270-350)
T2 sequence (looked up): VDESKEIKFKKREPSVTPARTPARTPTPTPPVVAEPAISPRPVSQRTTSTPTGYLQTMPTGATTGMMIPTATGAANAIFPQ

B1: Sla2cc (Sla2 residues 296-767), WildType (domain or fragment, Saccharomyces cerevisiae, UniProt P33338 296-767, looked up)
chain: TPTPPVVAEPAISPRPVSQRTTSTPTGYLQTMPTGATTGMMIPTATGAANAIFPQATAQMQPDFWANQQAQFANEQNRLEQERVQQLQQQQAQQELFQQQLQKAQQDMMNMQLQQQNQHQNDLIALTNQYEKDQALLQQYDQRVQQLESEITTMDSTASKQLANKDEQLTALQDQLDVWERKYESLAKLYSQLRQEHLNLLPRFKKLQLKVNSAQESIQKKEQLEHKLKQKDLQMAELVKDRDRARLELERSINNAEADSAAATAAAETMTQDKMNPILDAILESGINTIQESVYNLDSPLSWSGPLTPPTFLLSLLESTSENATEFATSFNNLIVDGLAHGDQTEVIHCVSDFSTSMATLVTNSKAYAVTTLPQEQSDQILTLVKRCAREAQYFFEDLMSENLNQVGDEEKTDIVINANVDMQEKLQELSLAIEPLLNIQSVKSNKETNPHSELVATADKIVKSSEHLRVD
modifications: RED-NHS dye label (only in the MST against CLC:70-140 and Pan1:777-987)
B2: NusA conjugated to CLC (NusA-CLC) (natural protein, Saccharomyces cerevisiae, UniProt P17891 1-233, looked up)
chain: MSEKFPPLEDQNIDFTPNDKKDDDTDFLKREAEILGDEFKTEQDDILETEASPAKDDDEIRDFEEQFPDINSANGAVSSDQNGSATVSSGNDNGEADDDFSTFEGANQSTESVKEDRSEVVDQWKQRRAVEIHEKDLKDEELKKELQDEAIKHIDDFYDSYNKKKEQQLEDAAKEAEAFLKKRDEFFGQDNTTWDRALQLINQDDADIIGGRDRSKLKEILLRLKGNAKAPGA
B3: Clathrin Light Chain (CLC), residues 1-233 (natural protein, Saccharomyces cerevisiae, UniProt P17891 1-233, looked up)
chain: B2 chain
modifications: RED-NHS dye label
B4: Sla2ccRTH (Sla2 residues 351-968) (domain or fragment, Saccharomyces cerevisiae, UniProt P33338 351-968, looked up)
chain: ATAQMQPDFWANQQAQFANEQNRLEQERVQQLQQQQAQQELFQQQLQKAQQDMMNMQLQQQNQHQNDLIALTNQYEKDQALLQQYDQRVQQLESEITTMDSTASKQLANKDEQLTALQDQLDVWERKYESLAKLYSQLRQEHLNLLPRFKKLQLKVNSAQESIQKKEQLEHKLKQKDLQMAELVKDRDRARLELERSINNAEADSAAATAAAETMTQDKMNPILDAILESGINTIQESVYNLDSPLSWSGPLTPPTFLLSLLESTSENATEFATSFNNLIVDGLAHGDQTEVIHCVSDFSTSMATLVTNSKAYAVTTLPQEQSDQILTLVKRCAREAQYFFEDLMSENLNQVGDEEKTDIVINANVDMQEKLQELSLAIEPLLNIQSVKSNKETNPHSELVATADKIVKSSEHLRVDVPKPLLSLALMIIDAVVALVKAAIQCQNEIATTTSIPLNQFYLKNSRWTEGLISAAKAVAGATNVLITTASKLITSEDNENTSPEQFIVASKEVAASTIQLVAASRVKTSIHSKAQDKLEHCSKDVTDACRSLGNHVMGMIEDDHSTSQQQQPLDFTSEHTLKTAEMEQQVEILKLEQSLSNARKRLGEIRRHAYYNQDDD
B5: Sla1 SH3_3 domain (Sla1 residues 355-414) (domain or fragment, Saccharomyces cerevisiae)
chain: GAMAKKRGIVQYDFMAESQDELTIKSGDKVYILDDKKSKDWWMCQLVDSGKSGLVPAQFIEPVR
modifications: also: RED-NHS dye label, site not given here

What was measured:
[1] = biological target: B3; experiment: MST
[2] = biological target: B4; experiment: mass photometry
Sla2cc ΔSite1 (Δ515-546) = biological target: T1, Sla2cc ΔSite1 (Δ515-546); experiment: MST
[3] = biological target: B5; experiment: MST
mass photometry = biological target: the molecule itself; experiment: mass photometry
[4] = biological target: T2, Sla2:270-350 (complete IDR of Sla2); experiment: MST

B1
KD of Site 1 (higher affinity site) [1]: ~100 nM | KD of Site 2 (lower affinity site) [1]: 3 µM

B2
stoichiometry N [2]: 1 NusA-CLC per Sla2 dimer

B3
binding result (Sla2cc ΔSite1 (Δ515-546)): binds

PVSTPARTPARTPTP [Sla2:283-297 peptide]
Kd [3]: 81.2 µM

B4
stoichiometry N (mass photometry): 2

B5
Kd [4]: 900 nM
